Assay results taken from publication PMC10395586.
Where “and” joins values, the source holds several entries; their conditions need not be identical. Identical values can stand only once. Like-named read-outs stand apart in the source and are kept apart here.

Key:
Assay in all cases: native MS
[1] = target: cpTMV-S65-3NY (tobacco mosaic virus)
[2] = target: cpTMV-S65-3NY (tobacco mosaic virus); remark: listed apart in the source
[3] = target: cpTMV-S65C (tobacco mosaic virus)
[4] = target: cpTMV without any mutation at the S65 position (tobacco mosaic virus)
[5] = target: cpTMV-S65-pAF (tobacco mosaic virus)

cpTMV-S65-3NY
monomers per disk (monomers per disk) [1]: 16 | monomers per disk (monomers per disk) [2]: 17

cpTMV-S65C
monomers per disk (monomers per disk) [3]: 16

cpTMV without any mutation at the S65 position
monomers per disk (monomers per disk) [4]: 16

cpTMV-S65-pAF
monomers per disk (two-disk stack) (monomers per disk) [5]: 16 and 17
